Data published in paper PMC3984077.

Molecular target: HasSCTD, the last 78 residues of the antisigma factor HasS of Serratia marcescens (Serratia marcescens) (UniProt Q79AD3)
Assay: NMR titration; 1H-15N HSQC, one partner 15N-labelled in turn, peak intensities before and after adding the unlabelled partner; 250 µM HasSCTD with 200, 400 or 800 µM signaling domain, or 100 µM 15N signaling domain with 250 µM HasSCTD; control with 400 µM periplasmic domain; sodium phosphate pH 7, 50 mM NaCl, 0.05% Zw, 15% D2O; 20°C

“signaling domain of the TonB-dependent outer membrane transporter HasR (from UniProt Q79AD2) (domain or fragment)” gave a reduction of the overall HSQC peak intensity of 15N HasSCTD of 35%.
